Legend:
Test in all cases: co-IP; LUMIER: Renilla luciferase-Smad3 and Flag-tagged partner co-expressed with constitutively active Alk5 in HEK-293; Flag protein captured from cleared lysate (TNE: 10 mM Tris-HCl pH 7.8, 150 mM NaCl, 1 mM EDTA, 1% Igepal CA-630) on anti-Flag 96-well plates, 2 h at 4 °C; co-precipitated Renilla luciferase activity, TrxGA background subtracted, percent of wild-type Smad3
[1] = target: SARA Smad-binding domain (amino acids 665–721) on the 3xFlag-thioredoxin scaffold (UniProt O95405)
SARA Smad-binding domain (amino acids 665–721) on the 3xFlag-thioredoxin scaffold, sequence (O95405 767-823): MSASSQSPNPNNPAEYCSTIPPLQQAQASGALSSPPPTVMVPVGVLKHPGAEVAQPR

[2] = target: SIP1 Smad-binding domain (amino acids 315–487) on the 3xFlag-thioredoxin scaffold (UniProt Q9R0G7)
SIP1 Smad-binding domain (amino acids 315–487) on the 3xFlag-thioredoxin scaffold, sequence (Q9R0G7 315-487): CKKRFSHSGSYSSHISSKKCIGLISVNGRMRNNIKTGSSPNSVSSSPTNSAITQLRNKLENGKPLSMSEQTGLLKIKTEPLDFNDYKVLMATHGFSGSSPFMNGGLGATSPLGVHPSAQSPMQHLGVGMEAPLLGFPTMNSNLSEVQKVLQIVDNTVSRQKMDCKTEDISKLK

[3] = target: Smurf2 Smad-binding domain (amino acids 252–330) on the Flag-thioredoxin scaffold (UniProt Q9HAU4)
Smurf2 Smad-binding domain (amino acids 252–330) on the Flag-thioredoxin scaffold, sequence (Q9HAU4 252-330): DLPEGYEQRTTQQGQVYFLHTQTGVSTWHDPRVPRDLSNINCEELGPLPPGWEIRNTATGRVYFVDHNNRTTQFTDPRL

[4] = target: Flag-SkiW274E, full length (UniProt P12755)
Flag-SkiW274E, full length, sequence (P12755 whole entry W274E): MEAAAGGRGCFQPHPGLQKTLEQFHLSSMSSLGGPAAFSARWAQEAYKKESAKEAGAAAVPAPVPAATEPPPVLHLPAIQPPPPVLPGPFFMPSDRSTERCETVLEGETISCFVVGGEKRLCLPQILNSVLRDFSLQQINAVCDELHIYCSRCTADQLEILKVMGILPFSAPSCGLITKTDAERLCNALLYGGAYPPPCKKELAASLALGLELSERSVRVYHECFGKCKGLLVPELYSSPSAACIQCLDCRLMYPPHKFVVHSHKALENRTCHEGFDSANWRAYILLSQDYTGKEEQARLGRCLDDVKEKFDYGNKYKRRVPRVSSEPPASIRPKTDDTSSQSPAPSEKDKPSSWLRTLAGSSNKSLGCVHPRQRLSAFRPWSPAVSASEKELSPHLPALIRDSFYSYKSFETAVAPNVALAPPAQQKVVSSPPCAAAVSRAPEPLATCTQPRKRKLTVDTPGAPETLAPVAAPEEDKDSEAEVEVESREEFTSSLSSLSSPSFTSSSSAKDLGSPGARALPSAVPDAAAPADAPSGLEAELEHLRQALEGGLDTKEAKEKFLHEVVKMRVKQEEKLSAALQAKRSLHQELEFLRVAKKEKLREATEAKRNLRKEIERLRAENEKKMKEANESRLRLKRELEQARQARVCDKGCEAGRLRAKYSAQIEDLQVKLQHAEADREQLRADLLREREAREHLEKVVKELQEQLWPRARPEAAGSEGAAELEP

Flag-Smad4, full length = Flag-Smad4, full length (UniProt Q13485)
Flag-Smad4, full length, sequence (Q13485 whole entry, the tested form may be a part): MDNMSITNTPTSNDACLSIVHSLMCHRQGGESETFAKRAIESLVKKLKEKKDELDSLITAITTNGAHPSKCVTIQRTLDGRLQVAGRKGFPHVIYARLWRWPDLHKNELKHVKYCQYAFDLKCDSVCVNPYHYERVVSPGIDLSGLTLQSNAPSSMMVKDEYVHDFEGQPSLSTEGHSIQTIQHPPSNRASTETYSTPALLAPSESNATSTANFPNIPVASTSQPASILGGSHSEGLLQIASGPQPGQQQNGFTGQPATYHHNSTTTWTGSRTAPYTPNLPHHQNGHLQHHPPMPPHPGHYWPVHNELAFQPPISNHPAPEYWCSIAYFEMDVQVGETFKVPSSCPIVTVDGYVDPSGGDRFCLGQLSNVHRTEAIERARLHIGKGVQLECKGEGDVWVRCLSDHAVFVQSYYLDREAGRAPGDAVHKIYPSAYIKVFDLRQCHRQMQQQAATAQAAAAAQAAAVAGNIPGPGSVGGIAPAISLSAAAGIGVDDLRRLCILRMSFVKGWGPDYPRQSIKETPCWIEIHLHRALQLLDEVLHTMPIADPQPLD

[5] = target: Ski Smad-binding domain (amino acids 2–56) on the 3xFlag-thioredoxin scaffold (UniProt P12755)
Ski Smad-binding domain (amino acids 2–56) on the 3xFlag-thioredoxin scaffold, sequence (P12755 2-56): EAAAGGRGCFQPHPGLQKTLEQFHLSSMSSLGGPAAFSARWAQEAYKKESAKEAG

Flag-SARA, full length = Flag-SARA, full length (UniProt O95405)
Flag-SARA, full length, sequence (O95405 whole entry): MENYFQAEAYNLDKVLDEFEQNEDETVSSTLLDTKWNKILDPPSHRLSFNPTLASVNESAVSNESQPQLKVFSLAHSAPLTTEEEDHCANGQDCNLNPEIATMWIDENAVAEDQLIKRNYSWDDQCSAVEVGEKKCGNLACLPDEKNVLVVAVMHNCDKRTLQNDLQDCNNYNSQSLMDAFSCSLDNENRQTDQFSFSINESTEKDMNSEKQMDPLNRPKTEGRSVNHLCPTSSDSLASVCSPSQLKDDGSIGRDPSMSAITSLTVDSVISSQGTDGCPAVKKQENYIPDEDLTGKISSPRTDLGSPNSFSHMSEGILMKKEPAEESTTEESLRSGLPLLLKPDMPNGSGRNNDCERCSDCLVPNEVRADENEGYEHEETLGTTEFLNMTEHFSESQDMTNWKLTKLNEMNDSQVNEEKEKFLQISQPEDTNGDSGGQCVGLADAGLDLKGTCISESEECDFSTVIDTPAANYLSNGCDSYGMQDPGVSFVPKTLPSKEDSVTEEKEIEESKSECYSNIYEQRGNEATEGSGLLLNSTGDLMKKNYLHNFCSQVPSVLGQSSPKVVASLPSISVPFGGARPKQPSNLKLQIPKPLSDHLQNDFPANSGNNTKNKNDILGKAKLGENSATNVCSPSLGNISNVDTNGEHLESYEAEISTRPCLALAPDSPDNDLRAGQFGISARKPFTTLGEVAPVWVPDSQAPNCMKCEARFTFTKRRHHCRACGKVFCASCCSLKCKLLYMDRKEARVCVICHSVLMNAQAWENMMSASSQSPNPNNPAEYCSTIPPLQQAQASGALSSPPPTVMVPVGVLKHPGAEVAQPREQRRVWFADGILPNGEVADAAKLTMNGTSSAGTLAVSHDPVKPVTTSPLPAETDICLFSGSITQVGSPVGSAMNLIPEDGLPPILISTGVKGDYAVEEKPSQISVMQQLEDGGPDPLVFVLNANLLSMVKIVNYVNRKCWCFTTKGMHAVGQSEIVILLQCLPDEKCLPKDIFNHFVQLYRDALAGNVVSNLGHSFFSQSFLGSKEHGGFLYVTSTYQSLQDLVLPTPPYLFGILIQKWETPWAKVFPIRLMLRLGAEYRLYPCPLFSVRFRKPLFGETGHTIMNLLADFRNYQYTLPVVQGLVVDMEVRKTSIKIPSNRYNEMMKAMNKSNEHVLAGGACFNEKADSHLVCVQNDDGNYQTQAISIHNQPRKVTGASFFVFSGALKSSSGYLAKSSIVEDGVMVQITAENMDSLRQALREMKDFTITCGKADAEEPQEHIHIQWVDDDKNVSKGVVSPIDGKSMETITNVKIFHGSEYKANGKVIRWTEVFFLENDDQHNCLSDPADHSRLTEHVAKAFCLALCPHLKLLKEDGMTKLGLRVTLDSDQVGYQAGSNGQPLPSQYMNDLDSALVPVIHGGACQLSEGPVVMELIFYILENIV

Flag-Smad3, full length = Flag-Smad3, full length (UniProt P84022)
Flag-Smad3, full length, sequence (P84022 whole entry): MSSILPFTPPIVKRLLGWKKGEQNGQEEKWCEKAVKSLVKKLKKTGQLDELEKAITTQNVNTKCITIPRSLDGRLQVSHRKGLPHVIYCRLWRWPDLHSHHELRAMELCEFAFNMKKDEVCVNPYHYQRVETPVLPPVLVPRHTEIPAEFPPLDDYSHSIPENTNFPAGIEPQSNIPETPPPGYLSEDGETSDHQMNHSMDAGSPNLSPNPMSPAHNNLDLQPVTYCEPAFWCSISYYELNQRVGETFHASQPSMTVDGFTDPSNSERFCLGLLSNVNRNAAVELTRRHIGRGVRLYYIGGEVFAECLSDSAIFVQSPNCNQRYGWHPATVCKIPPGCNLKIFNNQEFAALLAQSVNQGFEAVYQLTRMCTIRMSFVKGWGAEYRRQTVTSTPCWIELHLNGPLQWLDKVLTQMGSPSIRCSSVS

Renilla luciferase-Smad3 Del-PPGY (182–185), sequence (P84022 whole entry): as above

percent binding relative to wild-type Smad3 [1]: 129%
percent binding relative to wild-type Smad3 [2]: 200%
percent binding relative to wild-type Smad3 [3]: 3%
percent binding relative to wild-type Smad3 [4]: 83%
percent binding relative to wild-type Smad3 (Flag-Smad4, full length): 120%
percent binding relative to wild-type Smad3 [5]: 160%
percent binding relative to wild-type Smad3 (Flag-SARA, full length): 158%
percent binding relative to wild-type Smad3 (Flag-Smad3, full length): 86%
Substance: Renilla luciferase-Smad3 Del-PPGY (182–185) (from UniProt P84022 1-425) (natural protein)

Reference: PMC3176292
